Target: β-amyloid peptide (1-42) (UniProt P05067)
Sequence (P05067 whole entry, looked up, tested part not stated): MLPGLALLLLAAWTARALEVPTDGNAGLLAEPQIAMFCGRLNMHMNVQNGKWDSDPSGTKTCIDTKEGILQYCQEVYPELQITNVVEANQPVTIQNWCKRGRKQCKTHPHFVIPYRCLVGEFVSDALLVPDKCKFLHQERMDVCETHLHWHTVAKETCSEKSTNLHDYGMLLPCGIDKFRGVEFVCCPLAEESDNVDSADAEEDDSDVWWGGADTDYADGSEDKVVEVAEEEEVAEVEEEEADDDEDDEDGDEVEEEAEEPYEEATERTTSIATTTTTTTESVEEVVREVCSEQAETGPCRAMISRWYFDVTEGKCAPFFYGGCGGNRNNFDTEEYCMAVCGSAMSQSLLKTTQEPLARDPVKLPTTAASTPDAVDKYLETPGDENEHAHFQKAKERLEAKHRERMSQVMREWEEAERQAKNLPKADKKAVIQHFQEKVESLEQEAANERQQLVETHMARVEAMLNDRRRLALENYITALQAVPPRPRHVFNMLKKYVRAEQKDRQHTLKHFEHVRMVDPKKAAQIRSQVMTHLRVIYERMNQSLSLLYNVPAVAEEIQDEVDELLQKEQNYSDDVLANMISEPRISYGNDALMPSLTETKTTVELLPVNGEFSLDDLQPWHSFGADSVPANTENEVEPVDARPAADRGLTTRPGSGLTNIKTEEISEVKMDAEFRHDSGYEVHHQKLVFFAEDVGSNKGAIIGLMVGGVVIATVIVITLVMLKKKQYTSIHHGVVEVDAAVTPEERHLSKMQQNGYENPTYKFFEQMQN

yeast NEP (yNEP) showed an Abeta HPLC, per hr. (sample yNEP) of 0.46 per hr, an Abeta HPLC, rate (sample yNEP) (million sq unt/min) of 0.0137 and an Abeta HPLC, units/µL (sample yNEP) of 0.0274 units/µL. For the same substance, the Abeta HPLC, units/µg (sample yNEP) was 0.008 units/µg.

Source: patent US20210395716
